Reference: paper PMC2944812

Molecular target: Human C1q (human) (UniProt P02745)
Test: flow cytometry on cells; Washed TRAP-activated human platelets incubated with or without purified C1q (10 ug/mL), washed, then HAGG (0-10 ug/mL) for 30 min at RT; HAGG detected with rabbit anti-human IgG (Fab2)-FITC; C1q held on the platelet surface

Chain of UniProt P02745 (P02745 23-245, chain 1 of 3): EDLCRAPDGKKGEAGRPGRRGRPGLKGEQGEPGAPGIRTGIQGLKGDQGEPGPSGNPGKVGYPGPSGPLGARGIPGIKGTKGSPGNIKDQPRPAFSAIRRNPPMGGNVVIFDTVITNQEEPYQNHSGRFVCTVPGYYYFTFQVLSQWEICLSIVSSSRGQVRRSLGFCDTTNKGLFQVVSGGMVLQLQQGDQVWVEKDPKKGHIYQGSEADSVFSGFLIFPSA
Chain of UniProt P02745 (P02746 28-253, chain 2 of 3, further chain): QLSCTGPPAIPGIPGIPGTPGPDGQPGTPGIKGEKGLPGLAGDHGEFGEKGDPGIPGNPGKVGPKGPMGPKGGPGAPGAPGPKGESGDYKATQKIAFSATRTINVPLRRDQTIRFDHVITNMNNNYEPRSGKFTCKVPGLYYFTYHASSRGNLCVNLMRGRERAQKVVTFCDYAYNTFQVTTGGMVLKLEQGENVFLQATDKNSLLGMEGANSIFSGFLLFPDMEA
Chain of UniProt P02745 (P02747 29-245, chain 3 of 3, further chain): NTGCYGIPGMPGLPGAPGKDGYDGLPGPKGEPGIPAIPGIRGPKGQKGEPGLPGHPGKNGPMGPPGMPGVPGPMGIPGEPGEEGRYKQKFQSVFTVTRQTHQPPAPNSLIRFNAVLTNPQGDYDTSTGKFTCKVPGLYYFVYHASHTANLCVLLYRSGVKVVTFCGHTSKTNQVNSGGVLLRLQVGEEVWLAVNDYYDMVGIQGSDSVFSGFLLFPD

Q: For “heat-aggregated gamma globulin (natural protein)”, which fold increase of HAGG binding to activated platelets with C1q against without C1q is on record?
A: 2 fold
